Reference: patent US6436666
“And” between values parts separate entries of the source, which are not always exact repeats. Equal entries are not always repeated.

Columns and labels:
[1] = biological target: Substrate: protein A-G-G-G-G-7aa-NS4B/5A cleavage site-8aa-FLAG-G-FLAG-G-FLAG (Example 6) (hepatitis C virus); assay: time-resolved fluorometry: 20 nM substrate captured on IgG coated Immulon-4 plate, detected with Eu^3+-anti-FLAG MoAb
[2] = biological target: pro A-NS5 target polypeptide of Examples 3 and 4 (protein A anchor region, linker, protease target site of HCV NS5A/5B, linker, FLAG epitope tag region) (hepatitis C virus); assay: ELISA: pro A-NS5 on human IgG plate, no protease, anti-FLAG then goat anti-mouse conjugate
[3] = biological target: pro A-NS5, polypeptide substrate of HCV protease (Example 1 construct: Protein A - NS5A/5B protease target site - three FLAG tags) (hepatitis C virus); assay: ELISA: pro A-NS5 on IgG plate, no protease, anti-FLAG then goat anti-mouse-HRP; Exp. 2
[4] = biological target: pro A-NS5, polypeptide substrate of HCV protease (Example 1 construct: Protein A - NS5A/5B protease target site - three FLAG tags) (hepatitis C virus); assay: ELISA: pro A-NS5 on IgG plate, no protease, anti-FLAG then goat anti-mouse-HRP; Exp. 1
[5] = biological target: pro A-NS5, polypeptide substrate of HCV protease (Example 1 construct: Protein A - NS5A/5B protease target site - three FLAG tags) (hepatitis C virus); assay: ELISA: proA-NS5 2 µg/ml captured on IgG plate, no protease, anti-FLAG then goat anti-mouse-HRP, OPD
[6] = biological target: pro A-NS5, polypeptide substrate of HCV protease (Example 1 construct: Protein A - NS5A/5B protease target site - three FLAG tags) (hepatitis C virus); assay: ELISA: pro A-NS5 10 µg/ml captured on IgG plate, no protease, anti-FLAG then goat anti-mouse-HRP, OPD
[7] = biological target: Peptide 4A, a co-factor of the NS3 HCV protease (Example 2)

Eu^3+-anti-FLAG MoAb (Sigma via Kodak, cat#IB13026, lot# 710413) (antibody)
Eu^3+ counts [1]: 1.31e+06 Eu^3+ counts and 1.26e+06 Eu^3+ counts

Mouse monoclonal anti-FLAG M2 (IBI, IBI13010/6j0612) (antibody)
OD w/o DMSO [2]: 2.6 OD

monoclonal anti-FLAG mouse antibody (available from Kodak)
OD [3]: 0.93 OD | OD [4]: 1.23 OD | OD [5]: 0.77 OD | OD [6]: 1.21 OD

B1: protease 1: Ni-13 (F21) 20 µM, preparation made at Chiron (protein)
chain: APITAYAQQTRGLLGCIITSLTGRDKNQVEGEVQIVSTAAQTFLATCINGVCWTVYHGAGTRTIASPKGPVIQMYTNVDQDLVGWPAPQGSRSLTPCTCGSSDLYLVTRHADVIPVRRRGDSRGSLLSPRPISYLKGSSGGPLLCPAGHAVGIFRAAVCTRGVAKAVDFIPVENLETTMRS
cleavage of the NS4B/5A substrate by the protease with and without the co-factor peptide [7]: These data demonstrates the operability of the screening assay using HCV NS4B/5A protease cleavage site with co-factor peptide 4A
